In one experiment the target is T1, human plasminogen (human, UniProt P00747 20-810).
T1 construct: also called h Pg
Nature of the experiment: saturation binding ELISA, human plasminogen coated at 2 ug/ml, one-site hyperbola fit.

The target of a further experiment is human plasmin (human, UniProt P00747 97-810, limits assumed). Nature of the experiment: cell-based or functional assay.
For another experiment, the target named is T2, bovine serum albumin (bovine, UniProt P02769 25-607).
T2 construct: also called BSA
Nature of the experiment: ELISA, antigen coated at 10 ug/ml, antibody supernatant, compared with anti-digoxin control. On the procedure: (§1) Then goat anti mouse antibody conjugated with HRP (1:5000, Sc-2005, Santa Cruz) was then added. The plate was washed after incubation for 1 h. TMB was added to the wells and absorbance at 370nm was recorded.

A further experiment addresses T3, mouse plasminogen (mouse, UniProt P20918 20-812).
T3 construct: also called mouse (m) Pg
Described as above. The procedure:
as §1

A further experiment addresses human tPA (human, UniProt P00750 36-562). The description is as above. The procedure:
as §1

Sequence of human plasmin (P00747 97-810 limits assumed): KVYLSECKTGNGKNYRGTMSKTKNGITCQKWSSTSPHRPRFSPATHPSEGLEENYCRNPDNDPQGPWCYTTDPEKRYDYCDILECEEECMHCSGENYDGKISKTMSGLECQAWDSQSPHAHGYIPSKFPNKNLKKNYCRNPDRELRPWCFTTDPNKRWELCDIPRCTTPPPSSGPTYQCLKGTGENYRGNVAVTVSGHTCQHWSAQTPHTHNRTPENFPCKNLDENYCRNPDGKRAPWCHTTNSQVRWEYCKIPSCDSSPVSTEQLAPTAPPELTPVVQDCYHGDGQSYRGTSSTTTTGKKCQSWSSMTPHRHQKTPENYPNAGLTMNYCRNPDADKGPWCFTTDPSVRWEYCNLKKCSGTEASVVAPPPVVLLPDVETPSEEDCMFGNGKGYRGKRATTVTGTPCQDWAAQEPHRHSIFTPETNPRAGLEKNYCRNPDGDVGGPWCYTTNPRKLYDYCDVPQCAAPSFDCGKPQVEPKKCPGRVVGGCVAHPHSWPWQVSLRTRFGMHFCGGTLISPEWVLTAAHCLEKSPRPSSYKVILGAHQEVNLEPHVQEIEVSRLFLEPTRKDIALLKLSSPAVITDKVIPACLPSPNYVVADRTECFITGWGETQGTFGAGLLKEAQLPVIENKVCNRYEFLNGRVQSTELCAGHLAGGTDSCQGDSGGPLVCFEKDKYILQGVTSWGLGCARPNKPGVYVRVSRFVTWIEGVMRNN
T2 sequence (P02769 25-607 limits assumed): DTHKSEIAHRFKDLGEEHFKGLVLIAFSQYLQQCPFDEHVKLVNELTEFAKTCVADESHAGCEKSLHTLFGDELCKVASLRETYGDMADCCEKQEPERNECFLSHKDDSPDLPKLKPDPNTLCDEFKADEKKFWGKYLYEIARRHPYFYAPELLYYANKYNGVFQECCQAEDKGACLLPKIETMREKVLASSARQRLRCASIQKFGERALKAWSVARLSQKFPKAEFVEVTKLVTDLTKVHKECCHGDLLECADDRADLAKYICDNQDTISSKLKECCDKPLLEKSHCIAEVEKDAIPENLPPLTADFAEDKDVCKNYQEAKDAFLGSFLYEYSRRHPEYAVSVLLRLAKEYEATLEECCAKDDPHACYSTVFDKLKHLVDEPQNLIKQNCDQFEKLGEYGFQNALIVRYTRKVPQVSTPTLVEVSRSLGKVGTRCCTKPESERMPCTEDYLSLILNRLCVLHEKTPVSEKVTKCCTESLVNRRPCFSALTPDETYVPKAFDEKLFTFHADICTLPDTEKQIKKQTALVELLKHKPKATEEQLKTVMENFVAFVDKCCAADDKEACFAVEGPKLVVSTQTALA
T3 sequence (P20918 20-812 limits assumed): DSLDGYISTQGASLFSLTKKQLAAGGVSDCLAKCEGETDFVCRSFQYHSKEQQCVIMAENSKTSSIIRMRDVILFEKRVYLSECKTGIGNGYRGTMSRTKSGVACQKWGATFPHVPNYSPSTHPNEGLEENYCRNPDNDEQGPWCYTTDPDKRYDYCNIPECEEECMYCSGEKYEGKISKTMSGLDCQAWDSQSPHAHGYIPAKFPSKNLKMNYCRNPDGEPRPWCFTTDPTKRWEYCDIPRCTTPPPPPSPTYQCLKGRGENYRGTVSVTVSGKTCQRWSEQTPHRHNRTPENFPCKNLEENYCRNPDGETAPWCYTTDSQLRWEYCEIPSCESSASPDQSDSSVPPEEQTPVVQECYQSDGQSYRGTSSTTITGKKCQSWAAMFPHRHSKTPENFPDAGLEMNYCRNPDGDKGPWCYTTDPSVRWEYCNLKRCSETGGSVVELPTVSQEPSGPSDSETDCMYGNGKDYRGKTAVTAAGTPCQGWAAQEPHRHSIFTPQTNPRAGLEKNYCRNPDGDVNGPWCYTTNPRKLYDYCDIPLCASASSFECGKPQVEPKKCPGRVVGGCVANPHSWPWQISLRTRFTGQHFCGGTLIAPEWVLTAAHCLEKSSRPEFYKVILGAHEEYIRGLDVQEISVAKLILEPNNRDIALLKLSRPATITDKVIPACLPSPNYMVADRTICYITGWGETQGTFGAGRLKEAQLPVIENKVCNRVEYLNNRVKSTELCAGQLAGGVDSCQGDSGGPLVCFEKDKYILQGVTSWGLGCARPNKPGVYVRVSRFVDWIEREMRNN
T1 sequence (P00747 20-810 limits assumed): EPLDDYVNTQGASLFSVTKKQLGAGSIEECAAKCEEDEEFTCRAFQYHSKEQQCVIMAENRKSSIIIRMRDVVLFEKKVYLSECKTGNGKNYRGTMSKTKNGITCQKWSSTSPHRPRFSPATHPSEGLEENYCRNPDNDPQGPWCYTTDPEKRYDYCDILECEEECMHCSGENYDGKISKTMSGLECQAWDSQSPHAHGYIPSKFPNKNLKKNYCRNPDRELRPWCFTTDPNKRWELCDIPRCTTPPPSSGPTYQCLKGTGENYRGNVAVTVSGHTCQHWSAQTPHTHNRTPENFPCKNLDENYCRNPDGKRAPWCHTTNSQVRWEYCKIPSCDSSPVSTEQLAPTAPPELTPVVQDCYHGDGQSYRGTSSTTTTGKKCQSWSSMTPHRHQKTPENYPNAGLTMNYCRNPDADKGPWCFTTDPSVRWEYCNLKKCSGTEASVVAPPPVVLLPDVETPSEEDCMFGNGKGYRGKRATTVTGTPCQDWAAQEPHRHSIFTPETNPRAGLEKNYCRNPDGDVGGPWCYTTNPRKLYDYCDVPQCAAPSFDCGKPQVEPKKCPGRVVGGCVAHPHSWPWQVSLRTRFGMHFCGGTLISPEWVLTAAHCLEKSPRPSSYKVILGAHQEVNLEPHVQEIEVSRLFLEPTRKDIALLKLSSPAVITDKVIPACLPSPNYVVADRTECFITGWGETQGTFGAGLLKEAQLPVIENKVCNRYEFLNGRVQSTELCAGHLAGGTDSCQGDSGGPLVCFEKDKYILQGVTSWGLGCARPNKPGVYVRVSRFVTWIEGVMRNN
Sequence of human tPA (P00750 36-562 limits assumed): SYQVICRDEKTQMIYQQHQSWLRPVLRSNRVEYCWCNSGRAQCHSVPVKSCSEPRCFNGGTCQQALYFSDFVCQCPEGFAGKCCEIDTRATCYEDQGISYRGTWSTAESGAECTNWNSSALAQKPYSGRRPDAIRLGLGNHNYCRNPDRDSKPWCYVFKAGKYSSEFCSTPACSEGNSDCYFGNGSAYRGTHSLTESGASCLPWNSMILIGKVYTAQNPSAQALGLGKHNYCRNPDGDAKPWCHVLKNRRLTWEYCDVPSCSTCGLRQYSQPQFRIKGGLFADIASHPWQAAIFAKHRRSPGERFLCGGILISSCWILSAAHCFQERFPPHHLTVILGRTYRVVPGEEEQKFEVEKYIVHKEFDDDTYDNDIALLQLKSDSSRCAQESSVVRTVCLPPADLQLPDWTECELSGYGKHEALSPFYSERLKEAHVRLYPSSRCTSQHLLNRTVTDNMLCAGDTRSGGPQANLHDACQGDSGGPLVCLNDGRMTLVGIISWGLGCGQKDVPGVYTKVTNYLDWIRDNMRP
Method for human plasminogen: Saturation binding assay. Saturation binding assays were performed by ELISA in 96-well plates coated with 2 ug/ml of plasmin or plasminogen at room temperature for 1 hour. Wells were washed with PBS-T: (10 mM phosphate buffer pH 7.4, 150 mM NaCl, 0.05% Tween 20) six times. Non-specific protein binding sites were blocked with 1% BSA for 1 hour at room temperature. After washing the plate as above, various concentrations of antibody (0.002 to 100 ug/ml) were added to the plate in duplicate and for 1 hour at room temperature. The plate was washed and horseradish peroxidase (HRP) conjugated goat anti-mouse secondary antibody (1:8000, Santa Cruz, Dallas, Tex.) was added to the plate. After 1 hour incubation at room temperature, the plate was washed and TMB was added. The absorbance was then read at 370 nm.

B1: monoclonal antibody plasmin inhibitor (Pi) (antibody, mouse IgG1, kappa, V domains shown)
VH: EVKLLESGGGLVQPGGSLKLSCAASGFDFSRYWMSWVRQAPGKGLEWIGEINPDSSTINYTPSLKDKFIISRDNAKNSLYLQMSKVRSEDTALYYCASYCGYSYDALDCWGQGTSVTVSS
VL: DIQMTQSPSSLSASLGGKVSITCKASQDINKYISWYQHKPGKGPRLLIHYTSTLQPGIPSRFSGSGSGRDYSFSISNLEPEDIATYYCLQYDNLYTFGGGTKLEIKR
notes: Mouse hybridoma IgG purified from supernatant; also called Pi IgG; Pi MAb38
The molecule B1 yielded a Kd with human plasminogen of 3.4 nM. In addition, the “plasmin-mediated fibrinolysis of human fibrin clots (125I-fibrin release, tPA)” value in the experiment with human plasmin was ~5000 fold more potent than EACA. Besides, the binding result in the experiment with bovine serum albumin, with mouse plasminogen and in the experiment with human tPA was “no binding” in each case.

The values are drawn from US20190085097A1 (published 2019).
